For test [1], the target named is cyno glucagon receptor (cyno). Description: cell-based or functional assay.
Test [2] addresses GLP-1 receptor (Example 19, species not stated). Description: cell-based or functional assay.

The results in this text go back to patent publication US20230063420A1.

Regarding semaglutide (peptide), the cGCGR pEC50, cAMP accumulation in test [1] is < 9 -log M. Besides, in test [2], the pEC50, cAMP accumulation, 0% HSA is 11.6 -log M; the pEC50, cAMP accumulation, 0.1% HSA is 10.3 -log M; the pEC50, cAMP accumulation, 4% HSA was 9.24 -log M.
